Assay results taken from patent publication US9205136B2, “Human aminoacyl-tRNA synthetase polypeptides useful for the regulation of angiogenesis” (THE SCRIPPS RESEARCH INSTITUTE, priority 2000, dated 2015).

Columns and labels:
[1] = system: chick CAM; assay: Inhibition of VEGF165-induced or mini TyrRS-induced angiogenesis in chick CAM; format: in vivo; details: 3 μg inhibitor
Procedure: In vivo angiogenesis assays were conducted in chick chorioallantoic membrane (CAM) (Nicolaou et al., 1998, Bioorg. Med. Chem. 6:1185-208). Ten-day-old chick embryos were purchased from Mcintyre Poultry (Lakeside, Calif.) and were incubated at 37° C. and 70% humidity. A small hole was made with a small crafts drill (Dremel, Emerson Electric, Racine, Wis.) directly over the air sac at the end of the egg. The embryos were candled to determine a location to drill a second hole directly over embryonic blood vessels. […] A window was cut in the eggshell over the dropped CAM, exposing the CAM to direct access for experimental manipulation. Cortisone acetate-treated 5 mm filter disks were soaked with a particular protein sample (25 ng of VEGF165 or 250 ng of a given TyrRS molecule) and the filter disks added directly to the CAMs, which were relatively devoid of preexisting blood vessels. The windows were sealed with sterile tape and incubated at 37° C. At 0, 24, and 48 hours following incubation, 3 μg of […] (IP-10) (R & D Systems, Minneapolis, Minn.) was topically applied to the filter disks. After 72 hours, the CAM tissue associated with the filter disk was harvested and quantified using a stereomicroscope. Angiogenesis was assessed as the number of visible blood vessel branch points within the defined area of the filter disks. Each determination shown in FIG. 17 represents the mean from 5-8 embryos.
The angiostatic activity of human full-length TrpRS and human mini TrpRS was also analyzed in in vivo angiogenesis assays conducted in chick CAM. In vivo angiogenesis assays were performed as described in Example 12 with 3 μg of full-length TrpRS or mini TrpRS added to VEGF165-induced or mini TyrRS-induced CAM tissue.

[2] = system: MPs; assay: MP chemotaxis assay (ChemoTX microchemotaxis chamber); format: cell-based, human; details: for MP migration induced by synthetic peptide: assay as in Example 2; for MP chemotaxis (MP migration): sample proteins 1 nM, 3 hours
Procedure: (§1) Cells for the various cytokine assays described were prepared from acid citrate dextrose-treated blood of normal healthy volunteers. Human PMNs were isolated from the blood by centrifugation (700×g) over Histopaque 1077 and 1119 (Sigma). […] This procedure was repeated twice. Human MPs were isolated by centrifugation on Histopaque 1077 (Sigma). The mononuclear fraction was obtained, washed twice in Hanks' balanced salt solution, resuspended in RPMI-1640 medium (Sigma) containing 10% heat-inactivated fetal bovine serum (Sigma), plated in tissue culture flasks, and incubated in a 6% CO2 incubator at 37° C. for 1-2 hours (Kumagai et al., 1979, J. Immunol. Methods 29:17-25). Nonadherent cells were removed by washing the flasks three times with Hanks' balanced salt solution, and adherent cells were harvested by incubation with calcium-magnesium free phosphate-buffered saline containing 2 mM EDTA for 15 minutes at 4° C., followed by extensive washing.
MP chemotaxis assays were performed in a ChemoTX microchemotaxis chamber (Neuro Probe, Gaithersburg, Md.) containing polycarbonate filters (5 μm pores) with polyvinylpyrrolidone (PVP). MPs were suspended in RPMI-1640 medium containing 1% heat-inactivated fetal bovine serum, and 10^4 cells were added to the upper chamber. Sample proteins (1 nM) were added to the lower compartment of chemotaxis chambers, and the chambers were incubated for 3 hours. After incubation, nonmigrating cells were removed, membranes were fixed in methanol, and migrating cells were visualized with the HEMACOLOR™ stain set (EM Diagnostic Systems, Gibbstown, N.J.). Migrating cells were counted in high-power fields (HPFs). Each determination shown in FIG. 2 represents the average of nine HPF measurements.

[3] = system: PMNs; assay: PMN chemotaxis assay (ChemoTX microchemotaxis chamber); format: cell-based, human; details: for PMN migration induced by synthetic peptide: assay as in Example 2; for PMN chemotaxis (PMN migration): sample proteins 1 nM, 45 min
Procedure: as §1
PMN chemotaxis assays were performed in a ChemoTX microchemotaxis chamber (described herein). Sample proteins (1 nM) were added to the lower compartment of chemotaxis chambers, and 10^4 PMNs were added to the upper compartment. Chambers were incubated for 45 min, and migrating cells were counted in HPFs. Each determination shown in FIG. 2 represents the average of nine HPF measurements.

[4] = system: PMNs; assay: 125I-human mini TyrRS binding and competition assay on PMNs; details: for inhibition of 125I-mini TyrRS binding to PMNs by unlabeled ligand: 10 nM 125I-mini TyrRS, 200-fold molar excess of unlabeled ligand, on ice 2 hours
Procedure: The interaction of human mini TyrRS and PMNs was examined in binding studies using radioiodinated TyrRS molecules (Moser et al., 1993, J. Biol. Chem. 268:7125-28). Custom radioiodination of mini TyrRS with was performed by Research & Diagnostic Antibody (Richmond, Calif.). In the binding assays, 2×10^6 PMNs were first suspended in 120 μl of RPMI-1640 medium containing 20 mM Hepes (pH 7.4) and 10 mg/ml bovine serum albumin. […] Following incubation, cells were separated from unbound radioactivity by centrifugation at approximately 8000×g for 2 minutes through 500 μL, of a 10% sucrose/phosphate-buffered saline (PBS) cushion. The supernatant was aspirated, and the cell sediment was resuspended using EcoLite (ICN Biomedicals, Irvine, Calif.) and analyzed in a scintillation counter.
Following incubation, cells were separated from unbound radioactivity as described herein.

With “IP-10: angiostatic α-chemokine (R & D Systems)” the “inhibition of VEGF165-induced angiogenesis in chick CAM” value ([1]; 25 ng VEGF165, 72 hours) was “inhibited” and the “inhibition of mini TyrRS-induced angiogenesis in chick CAM” value ([1]; 250 ng mini TyrRS, 72 hours) was “inhibited”.

With “R-V-G-R-I-I-K (RVGRIIK; Caenorhabditis elegans) [synthetic peptide derived from C. elegans MetRS, reference compound]” the “MP migration induced by synthetic peptide” value (“MP migration induced” below) ([2]; synthetic heptapeptides) was “neither peptide induced PMN or MP migration” and the “PMN migration induced by synthetic peptide” value (from here on “PMN migration induced”) ([3]; synthetic heptapeptides) was “neither peptide induced PMN or MP migration”.

“R-V-G-K-I-I-T (RVGKIIT; listed as Homo sapiens) [TyrRS carboxyl-terminal domain peptide, synthetic peptide derived from the TyrRS carboxyl-terminal domain]” was tested, and the “dose-dependence of peptide effect on MP migration” value ([2]; synthetic heptapeptides) was “dose-dependence similar to that of the mature EMAP II peptide”, the “MP migration induced” value ([2]; synthetic heptapeptides) was “MP migration” and the “dose-dependence of peptide effect on PMN migration” value ([3]; synthetic heptapeptides) was “dose-dependence similar to that of the mature EMAP II peptide”. For the same molecule, the “PMN migration induced” value ([3]; synthetic heptapeptides) was “induced PMN migration”.

With “Gro: human recombinant Gro (Biosource International), α-chemokine” the “inhibition of 125I-mini TyrRS binding to PMNs by unlabeled ligand” value (“inhibition of 125I-mini TyrRS binding” below) [4] was “did not significantly inhibit the binding”.

In the case of “R-V-G-F-I-Q-K (RVGFIQK; listed as Saccharomyces cerevisiae) [synthetic peptide derived from S. cerevisiae Arc1p, reference compound]”, the “MP migration induced” value ([2]; synthetic heptapeptides) is reported as “neither peptide induced PMN or MP migration” and the “PMN migration induced” value ([3]; synthetic heptapeptides) is reported as “neither peptide induced PMN or MP migration”.

B1: EMAP II: human mature endothelial monocyte-activating polypeptide II, C-terminal His6 tag (protein)
chain: ANNDAVLKRLEQKGAEADQIIEYLKQQVSLLKEKAILQATLREEKKLRVENAKLKKEIEELKQELIQAEIQNGVKQIPFPSGTPLHANSMVSENVIQSTAVTTVSSGTKEQIKGGTGDEKKAKEKIEKKGEKKEKKQQSIAGSADSKPIDVSRLDLRIGCIITARKHPDADSLYVEEVDVGEIAPRTVVSGLVNHVPLEQMQNRMVILLCNLKPAKMRGVLSQAMVMCASSPEKIEILAPPNGSVPGDRITFDAFPGEPDKELNPKKKIWEQIQPDLHTNDECVATYKGVPFEVKGKGVCRAQTMSNSGIKHHHHHH
B1 was tested, and the “inhibition of 125I-mini TyrRS binding” value [4] was “neither the TyrRS carboxyl-terminal domain nor EMAP II inhibited”, the “concentration dependence of PMN migration” value [3] was “bell-shaped concentration dependence” and the “PMN chemotaxis (PMN migration)” value [3] was “induction of PMN migration”.

B2: S. cerevisiae TyrRS: S. cerevisiae tyrosyl-tRNA synthetase, NYR in place of ELR (protein)
chain: MSSAATVDPNEAFGLITKNLQEVLNPQIIKDVLEVQKRHLKLYWGTAPTGRPHCGYFVPMTKLADFLKAGCEVTVLLADLHAFLDNMKAPLEVVNYRAKYYELTIKAILRSINVPIEKLKFVVGSSYQLTPDYTMDIFRLSNIVSQNDAKRAGADVVKQVANPLLSGLIYPLMQALDEQFLDVDCQFGGVDQRKIFVLAEENLPSLGYKKRAHLMNPMVPGLAQGGKMSASDPNSKIDLLEEPKQVKKKINSAFCSPGNVEENGLLSFVQYVIAPIQELKFGTNHFEFFIDRPEKFGGPITYKSFEEMKLAFKEEKLSPPDLKIGVADAINELLEPIRQEFANNKEFQEASEKGYPVATPQKSKKAKKPKNKGTKYPGATKTNEIATKLEETKL
B2 was tested, and the “inhibition of 125I-mini TyrRS binding” value [4] was “inhibited the binding”, the “dissociation constant relative to that for human mini TyrRS” value ([4]; PMN binding competition) was no more than 200 fold and the “PMN chemotaxis over a concentration series” value ([3]; 0.1, 1, 10, 100, and 1000 nM) was “No significant chemotaxis”. For the same molecule, the “PMN chemotaxis (PMN migration)” value [3] was “no chemotaxis was observed”.

B3: truncated mini TyrRS: recombinant truncated mini TyrRS comprising residues 1-344 of human full-length TyrRS (protein, UniProt P54577 1-344, looked up, fragment)
chain: MGDAPSPEEKLHLITRNLQEVLGEEKLKEILKERELKIYWGTATTGKPHVAYFVPMSKIADFLKAGCEVTILFADLHAYLDNMKAPWELLELRVSYYENVIKAMLESIGVPLEKLKFIKGTDYQLSKEYTLDVYRLSSVVTQHDSKKAGAEVVKQVEHPLLSGLLYPGLQALDEEYLKVDAQFGGIDQRKIFTFAEKYLPALGYSKRVHLMNPMVPGLTGSKMSSSEEESKIDLLDRKEDVKKKLKKAFCEPGNVENNGVLSFIKHVLFPLKSEFVILRDEKWGGNKTYTAYVDLEKDFAAEVVHPGDLKNSVEVALNKLLDPIREKFNTPALKKLASAAYPDP
With B3 the “MP chemotaxis (MP migration)” value [2] was “not for MPs” and the “PMN chemotaxis (PMN migration)” value [3] was “capable of functioning as a chemoattractant for PMNs”.

B4: NAP-2: human recombinant NAP-2 (Biosource International), α-chemokine (protein)
chain: AELRCMCIKTTSGIHPKNIQSLEVIGKGTHCNQVEVIATLKDGRKICLDPDAPRIKKIVQKKLAGDESAD
B4 was tested, and the “inhibition of 125I-mini TyrRS binding” value [4] was “did not significantly inhibit the binding”.

B5: extended carboxyl-terminal domain: recombinant residues 344-528 of human full-length TyrRS (protein, UniProt P54577 344-528, looked up, fragment)
chain: PSKQKPMAKGPAKNSEPEEVIPSRLDIRVGKIITVEKHPDADSLYVEKIDVGEAEPRTVVSGLVQFVPKEELQDRLVVVLCNLKPQKMRGVESQGMLLCASIEGINRQVEPLDPPAGSAPGEHVFVKGYEKGQPDEELKPKKKVFEKLQADFKISEECIAQWKQTNFMTKLGSISCKSLKGGNIS
B5 was tested, and the “MP chemotaxis (MP migration)” value [2] was “capable of can inducing both MP and PMN chemotaxis” and the “PMN chemotaxis (PMN migration)” value [3] was “capable of can inducing both MP and PMN chemotaxis”.
